B1: AMOTL2 peptide 64-79 (Angiomotin-like protein 2), 16-mer library wild type / TNKS ANK (TNKS 12 ANK repeats, residues 174-649) (parent complex)
chain 1: QVLQQATRQEPQGQEH
chain 2: TGVPAVSGALRELLEACRNGDVSRVKRLVDAANVNAKDMAGRKSSPLHFAAGFGRKDVVEHLLQMGANVHARDDGGLIPLHNACSFGHAEVVSLLLCQGADPNARDNWNYTPLHEAAIKGKIDVCIVLLQHGADPNIRNTDGKSALDLADPSAKAVLTGEYKKDELLEAARSGNEEKLMALLTPLNVNCHASDGRKSTPLHLAAGYNRVRIVQLLLQHGADVHAKDKGGLVPLHNACSYGHYEVTELLLKHGACVNAMDLWQFTPLHEAASKNRVEVCSLLLSHGADPTLVNCHGKSAVDMAPTPELRERLTYEFKGHSLLQAAREADLAKVKKTLALEIINFKQPQSHETALHCAVASLHPKRKQVTELLLRKGANVNEKNKDFMTPLHVAAERAHNDVMEVLHKHGAKMNALDTLGQTALHRAALAGHLQTCRLLLSYGSDPSIISLQGFTAAQMGNEAVQQILSESTPIRTSD

Variants of: B1
Assay: proteomic peptide phage display deep mutational scan (ProP-PD DMS): M13 P8 16-mer library selected against immobilised GST-tagged bait for four days (rounds), NGS of the eluted pools per day and pseudo-replica; bait immobilised on MaxiSorp plates (10 µg), library pre-cleared on GST, 2 h binding at 4 °C, five washes; one round per day, days 1-4; value from days 2 and 3
For chain 1 Q14L, the screen value was 0.000371 average fractional NGS count over selection days 2 and 3 (reads of this peptide / all reads for the bait, averaged over ….
In the case of chain 1 Q14V, the screen value is reported as 0.000381 average fractional NGS count over selection days 2 and 3 (reads of this peptide / all reads for the bait, averaged over ….
For chain 1 Q14Y, the screen value was 0.000143 average fractional NGS count over selection days 2 and 3 (reads of this peptide / all reads for the bait, averaged over ….
chain 1 Q14S was tested, and the screen value was 0.00613 average fractional NGS count over selection days 2 and 3 (reads of this peptide / all reads for the bait, averaged over ….
With chain 1 Q14W the screen value was 0.00254 average fractional NGS count over selection days 2 and 3 (reads of this peptide / all reads for the bait, averaged over ….
For chain 1 Q14H, the screen value was 0.00069 average fractional NGS count over selection days 2 and 3 (reads of this peptide / all reads for the bait, averaged over ….
For chain 1 Q14T, the screen value was 0.00286 average fractional NGS count over selection days 2 and 3 (reads of this peptide / all reads for the bait, averaged over ….
For chain 1 Q14K, the screen value was 0.000473 average fractional NGS count over selection days 2 and 3 (reads of this peptide / all reads for the bait, averaged over ….
In the case of chain 1 Q14I, the screen value is reported as 0.002 average fractional NGS count over selection days 2 and 3 (reads of this peptide / all reads for the bait, averaged over ….
For chain 1 Q14N, the screen value was 0.00223 average fractional NGS count over selection days 2 and 3 (reads of this peptide / all reads for the bait, averaged over ….
chain 1 R8A was tested, and the screen value was 0.000176 average fractional NGS count over selection days 2 and 3 (reads of this peptide / all reads for the bait, averaged over ….
In the case of chain 1 Q12I, the screen value is reported as 0.00433 average fractional NGS count over selection days 2 and 3 (reads of this peptide / all reads for the bait, averaged over ….
In the case of chain 1 Q12L, the screen value is reported as 0.00049 average fractional NGS count over selection days 2 and 3 (reads of this peptide / all reads for the bait, averaged over ….
For chain 1 Q12S, the screen value was 0.000155 average fractional NGS count over selection days 2 and 3 (reads of this peptide / all reads for the bait, averaged over ….
chain 1 Q12G was tested, and the screen value was 0.000392 average fractional NGS count over selection days 2 and 3 (reads of this peptide / all reads for the bait, averaged over ….
In the case of chain 1 Q12M, the screen value is reported as 0.00046 average fractional NGS count over selection days 2 and 3 (reads of this peptide / all reads for the bait, averaged over ….
In the case of chain 1 Q12H, the screen value is reported as 0.000111 average fractional NGS count over selection days 2 and 3 (reads of this peptide / all reads for the bait, averaged over ….
chain 1 Q12Y was tested, and the screen value was 0.0011 average fractional NGS count over selection days 2 and 3 (reads of this peptide / all reads for the bait, averaged over ….
For chain 1 Q12N, the screen value was 0.000885 average fractional NGS count over selection days 2 and 3 (reads of this peptide / all reads for the bait, averaged over ….
chain 1 Q12E was tested, and the screen value was 0.000439 average fractional NGS count over selection days 2 and 3 (reads of this peptide / all reads for the bait, averaged over ….
In the case of chain 1 Q12W, the screen value is reported as 0.000556 average fractional NGS count over selection days 2 and 3 (reads of this peptide / all reads for the bait, averaged over ….
In the case of chain 1 Q12D, the screen value is reported as 0.000551 average fractional NGS count over selection days 2 and 3 (reads of this peptide / all reads for the bait, averaged over ….
For chain 1 Q12F, the screen value was 0.00125 average fractional NGS count over selection days 2 and 3 (reads of this peptide / all reads for the bait, averaged over ….
chain 1 E15N was tested, and the screen value was 0.00037 average fractional NGS count over selection days 2 and 3 (reads of this peptide / all reads for the bait, averaged over ….
In the case of chain 1 E15V, the screen value is reported as 0.00435 average fractional NGS count over selection days 2 and 3 (reads of this peptide / all reads for the bait, averaged over ….
chain 1 E15Q was tested, and the screen value was 0.000335 average fractional NGS count over selection days 2 and 3 (reads of this peptide / all reads for the bait, averaged over ….
chain 1 E15D was tested, and the screen value was 0.000568 average fractional NGS count over selection days 2 and 3 (reads of this peptide / all reads for the bait, averaged over ….
With chain 1 E15W the screen value was 0.00103 average fractional NGS count over selection days 2 and 3 (reads of this peptide / all reads for the bait, averaged over ….
For chain 1 E15R, the screen value was 0.00165 average fractional NGS count over selection days 2 and 3 (reads of this peptide / all reads for the bait, averaged over ….
For chain 1 E15F, the screen value was 0.000795 average fractional NGS count over selection days 2 and 3 (reads of this peptide / all reads for the bait, averaged over ….
With chain 1 E15L the screen value was 0.00245 average fractional NGS count over selection days 2 and 3 (reads of this peptide / all reads for the bait, averaged over ….
In the case of chain 1 E15Y, the screen value is reported as 0.0003 average fractional NGS count over selection days 2 and 3 (reads of this peptide / all reads for the bait, averaged over ….
In the case of chain 1 E15M, the screen value is reported as 0.000421 average fractional NGS count over selection days 2 and 3 (reads of this peptide / all reads for the bait, averaged over ….
chain 1 E15A was tested, and the screen value was 0.000599 average fractional NGS count over selection days 2 and 3 (reads of this peptide / all reads for the bait, averaged over ….
With chain 1 E15P the screen value was 0.000133 average fractional NGS count over selection days 2 and 3 (reads of this peptide / all reads for the bait, averaged over ….
chain 1 E15S was tested, and the screen value was 0.00106 average fractional NGS count over selection days 2 and 3 (reads of this peptide / all reads for the bait, averaged over ….
For chain 1 Q4N, the screen value was 0.00124 average fractional NGS count over selection days 2 and 3 (reads of this peptide / all reads for the bait, averaged over ….
In the case of chain 1 Q4E, the screen value is reported as 0.000127 average fractional NGS count over selection days 2 and 3 (reads of this peptide / all reads for the bait, averaged over ….
For chain 1 Q4M, the screen value was 0.000805 average fractional NGS count over selection days 2 and 3 (reads of this peptide / all reads for the bait, averaged over ….
For chain 1 Q4P, the screen value was 0.000712 average fractional NGS count over selection days 2 and 3 (reads of this peptide / all reads for the bait, averaged over ….
chain 1 Q4Y was tested, and the screen value was 0.00141 average fractional NGS count over selection days 2 and 3 (reads of this peptide / all reads for the bait, averaged over ….
With chain 1 Q4S the screen value was 0.000703 average fractional NGS count over selection days 2 and 3 (reads of this peptide / all reads for the bait, averaged over ….
In the case of chain 1 Q4W, the screen value is reported as 0.000181 average fractional NGS count over selection days 2 and 3 (reads of this peptide / all reads for the bait, averaged over ….
With chain 1 Q4K the screen value was 0.000138 average fractional NGS count over selection days 2 and 3 (reads of this peptide / all reads for the bait, averaged over ….
With chain 1 Q4R the screen value was 0.000203 average fractional NGS count over selection days 2 and 3 (reads of this peptide / all reads for the bait, averaged over ….
In the case of chain 1 Q4H, the screen value is reported as 0.000314 average fractional NGS count over selection days 2 and 3 (reads of this peptide / all reads for the bait, averaged over ….
With chain 1 Q4D the screen value was 0.000668 average fractional NGS count over selection days 2 and 3 (reads of this peptide / all reads for the bait, averaged over ….
For chain 1 Q4T, the screen value was 0.0012 average fractional NGS count over selection days 2 and 3 (reads of this peptide / all reads for the bait, averaged over ….
For chain 1 Q4L, the screen value was 0.000267 average fractional NGS count over selection days 2 and 3 (reads of this peptide / all reads for the bait, averaged over ….
For chain 1 Q4A, the screen value was 0.00355 average fractional NGS count over selection days 2 and 3 (reads of this peptide / all reads for the bait, averaged over ….
chain 1 Q4I was tested, and the screen value was 0.0028 average fractional NGS count over selection days 2 and 3 (reads of this peptide / all reads for the bait, averaged over ….
chain 1 L3D was tested, and the screen value was 0.000181 average fractional NGS count over selection days 2 and 3 (reads of this peptide / all reads for the bait, averaged over ….
chain 1 L3R was tested, and the screen value was 0.000319 average fractional NGS count over selection days 2 and 3 (reads of this peptide / all reads for the bait, averaged over ….
With chain 1 L3H the screen value was 0.00318 average fractional NGS count over selection days 2 and 3 (reads of this peptide / all reads for the bait, averaged over ….
chain 1 L3A was tested, and the screen value was 0.000396 average fractional NGS count over selection days 2 and 3 (reads of this peptide / all reads for the bait, averaged over ….
With chain 1 L3I the screen value was 0.00105 average fractional NGS count over selection days 2 and 3 (reads of this peptide / all reads for the bait, averaged over ….
chain 1 L3P was tested, and the screen value was 0.000422 average fractional NGS count over selection days 2 and 3 (reads of this peptide / all reads for the bait, averaged over ….
chain 1 L3E was tested, and the screen value was 0.00384 average fractional NGS count over selection days 2 and 3 (reads of this peptide / all reads for the bait, averaged over ….
chain 1 L3M was tested, and the screen value was 0.000608 average fractional NGS count over selection days 2 and 3 (reads of this peptide / all reads for the bait, averaged over ….
chain 1 L3Q was tested, and the screen value was 0.00366 average fractional NGS count over selection days 2 and 3 (reads of this peptide / all reads for the bait, averaged over ….
In the case of chain 1 L3S, the screen value is reported as 0.000145 average fractional NGS count over selection days 2 and 3 (reads of this peptide / all reads for the bait, averaged over ….
chain 1 L3Y was tested, and the screen value was 0.000502 average fractional NGS count over selection days 2 and 3 (reads of this peptide / all reads for the bait, averaged over ….
For chain 1 L3K, the screen value was 0.00157 average fractional NGS count over selection days 2 and 3 (reads of this peptide / all reads for the bait, averaged over ….
For chain 1 L3G, the screen value was 0.000399 average fractional NGS count over selection days 2 and 3 (reads of this peptide / all reads for the bait, averaged over ….
With chain 1 L3T the screen value was 0.00246 average fractional NGS count over selection days 2 and 3 (reads of this peptide / all reads for the bait, averaged over ….
chain 1 L3V was tested, and the screen value was 0.00036 average fractional NGS count over selection days 2 and 3 (reads of this peptide / all reads for the bait, averaged over ….
With chain 1 H16W the screen value was 0.000565 average fractional NGS count over selection days 2 and 3 (reads of this peptide / all reads for the bait, averaged over ….
chain 1 H16Y was tested, and the screen value was 0.00033 average fractional NGS count over selection days 2 and 3 (reads of this peptide / all reads for the bait, averaged over ….
For chain 1 H16A, the screen value was 0.00111 average fractional NGS count over selection days 2 and 3 (reads of this peptide / all reads for the bait, averaged over ….
For chain 1 H16P, the screen value was 0.000313 average fractional NGS count over selection days 2 and 3 (reads of this peptide / all reads for the bait, averaged over ….
With chain 1 H16L the screen value was 0.000215 average fractional NGS count over selection days 2 and 3 (reads of this peptide / all reads for the bait, averaged over ….
With chain 1 H16S the screen value was 0.000142 average fractional NGS count over selection days 2 and 3 (reads of this peptide / all reads for the bait, averaged over ….
In the case of chain 1 H16M, the screen value is reported as 0.0005 average fractional NGS count over selection days 2 and 3 (reads of this peptide / all reads for the bait, averaged over ….
With chain 1 H16V the screen value was 0.000284 average fractional NGS count over selection days 2 and 3 (reads of this peptide / all reads for the bait, averaged over ….
In the case of chain 1 H16I, the screen value is reported as 0.000704 average fractional NGS count over selection days 2 and 3 (reads of this peptide / all reads for the bait, averaged over ….

— paper PMC12102759 (2025)
